The chains are these.
B1: Death-inducer obliterator 1, residues 263 to 321; numbered along this chain, Q9BTC0 (parent)
chain: GYDPNALYCICRQPHNNRFMICCDRCEEWFHGDCVGISEARGRLLERNGEDYICPNCTI

± gives the uncertainty stated by the source.

In this data set the parent is B1. The data set can be described thus: abundance fitness (aPCA) (normalised: wild type 0, dead -1); higher = more abundant; growth selection in yeast, the domain comes from the species named. The note with it: Homo sapiens.
Regarding GYDPNLLYCICRQPHNNRFMICCDRCEEWFHGDCVGISEARGRLLERNGEDYICPNCTI [A6L], the abundance fitness is -0.33 ± 0.078.

Regarding GYDPNVLYCICRQPHNNRFMICCDRCEEWFHGDCVGISEARGRLLERNGEDYICPNCTI [A6V], the abundance fitness is -0.066 ± 0.064.

As for GYDPNFLYCICRQPHNNRFMICCDRCEEWFHGDCVGISEARGRLLERNGEDYICPNCTI [A6F], the abundance fitness is -0.198 ± 0.17.

In the case of GYDPNPLYCICRQPHNNRFMICCDRCEEWFHGDCVGISEARGRLLERNGEDYICPNCTI [A6P], the abundance fitness is -0.471 ± 0.1.

For the variant GYDPNWLYCICRQPHNNRFMICCDRCEEWFHGDCVGISEARGRLLERNGEDYICPNCTI [A6W], the abundance fitness was -0.569 ± 0.13.

As for GYDPNQLYCICRQPHNNRFMICCDRCEEWFHGDCVGISEARGRLLERNGEDYICPNCTI [A6Q], the abundance fitness was -0.105 ± 0.12.

For the variant GYDPNKLYCICRQPHNNRFMICCDRCEEWFHGDCVGISEARGRLLERNGEDYICPNCTI [A6K], the abundance fitness was -0.412 ± 0.1.

As for GYDPNYLYCICRQPHNNRFMICCDRCEEWFHGDCVGISEARGRLLERNGEDYICPNCTI [A6Y], the abundance fitness was -0.806 ± 0.21.

Take GYDPNNLYCICRQPHNNRFMICCDRCEEWFHGDCVGISEARGRLLERNGEDYICPNCTI [A6N]: the abundance fitness amounted to 0.041 ± 0.13.

As for GYDPNMLYCICRQPHNNRFMICCDRCEEWFHGDCVGISEARGRLLERNGEDYICPNCTI [A6M], the abundance fitness was 0.102 ± 0.082.

For GYDPNGLYCICRQPHNNRFMICCDRCEEWFHGDCVGISEARGRLLERNGEDYICPNCTI [A6G], the abundance fitness is -0.306 ± 0.058.

On to GYDPNTLYCICRQPHNNRFMICCDRCEEWFHGDCVGISEARGRLLERNGEDYICPNCTI [A6T], for which the abundance fitness was -0.07 ± 0.1.

Turning to GYDPNAIYCICRQPHNNRFMICCDRCEEWFHGDCVGISEARGRLLERNGEDYICPNCTI [L7I], the abundance fitness turned out to be 0.106 ± 0.088.

On to GYDPNADYCICRQPHNNRFMICCDRCEEWFHGDCVGISEARGRLLERNGEDYICPNCTI [L7D], for which the abundance fitness is -0.415 ± 0.1.

GYDPNAGYCICRQPHNNRFMICCDRCEEWFHGDCVGISEARGRLLERNGEDYICPNCTI [L7G]: the abundance fitness amounted to 0.086 ± 0.049.

With GYDPNAMYCICRQPHNNRFMICCDRCEEWFHGDCVGISEARGRLLERNGEDYICPNCTI [L7M], the abundance fitness was determined as 0.1 ± 0.072.

As to GYDPNAYYCICRQPHNNRFMICCDRCEEWFHGDCVGISEARGRLLERNGEDYICPNCTI [L7Y], the abundance fitness came to 0.002 ± 0.11.

For GYDPNAFYCICRQPHNNRFMICCDRCEEWFHGDCVGISEARGRLLERNGEDYICPNCTI [L7F], the abundance fitness is 0.042 ± 0.083.

Regarding GYDPNAKYCICRQPHNNRFMICCDRCEEWFHGDCVGISEARGRLLERNGEDYICPNCTI [L7K], the abundance fitness was -0.012 ± 0.23.

GYDPNAEYCICRQPHNNRFMICCDRCEEWFHGDCVGISEARGRLLERNGEDYICPNCTI [L7E]: the abundance fitness was determined as 0.032 ± 0.081.

With GYDPNAQYCICRQPHNNRFMICCDRCEEWFHGDCVGISEARGRLLERNGEDYICPNCTI [L7Q], the abundance fitness turned out to be 0.026 ± 0.081.

In the case of GYDPNACYCICRQPHNNRFMICCDRCEEWFHGDCVGISEARGRLLERNGEDYICPNCTI [L7C], the abundance fitness is -0.062 ± 0.078.

In the case of GYDPNAHYCICRQPHNNRFMICCDRCEEWFHGDCVGISEARGRLLERNGEDYICPNCTI [L7H], the abundance fitness came out at 0.119 ± 0.079.

Regarding GYDPNARYCICRQPHNNRFMICCDRCEEWFHGDCVGISEARGRLLERNGEDYICPNCTI [L7R], the abundance fitness amounted to 0.008 ± 0.048.

Regarding GYDPNAPYCICRQPHNNRFMICCDRCEEWFHGDCVGISEARGRLLERNGEDYICPNCTI [L7P], the abundance fitness was -0.119 ± 0.076.

On to GYDPNAWYCICRQPHNNRFMICCDRCEEWFHGDCVGISEARGRLLERNGEDYICPNCTI [L7W], for which the abundance fitness was -0.055 ± 0.15.

As for GYDPNANYCICRQPHNNRFMICCDRCEEWFHGDCVGISEARGRLLERNGEDYICPNCTI [L7N], the abundance fitness turned out to be 0.009 ± 0.098.

As for GYDPNATYCICRQPHNNRFMICCDRCEEWFHGDCVGISEARGRLLERNGEDYICPNCTI [L7T], the abundance fitness is -0.006 ± 0.066.

As to GYDPNALYAICRQPHNNRFMICCDRCEEWFHGDCVGISEARGRLLERNGEDYICPNCTI [C9A], the abundance fitness was -0.636 ± 0.1.

For the variant GYDPNALYTICRQPHNNRFMICCDRCEEWFHGDCVGISEARGRLLERNGEDYICPNCTI [C9T], the abundance fitness is -0.743 ± 0.14.

With GYDPNALYSICRQPHNNRFMICCDRCEEWFHGDCVGISEARGRLLERNGEDYICPNCTI [C9S], the abundance fitness was -0.859 ± 0.096.

On to GYDPNALYPICRQPHNNRFMICCDRCEEWFHGDCVGISEARGRLLERNGEDYICPNCTI [C9P], for which the abundance fitness is -0.877 ± 0.24.

On to GYDPNALYYICRQPHNNRFMICCDRCEEWFHGDCVGISEARGRLLERNGEDYICPNCTI [C9Y], for which the abundance fitness was -0.763 ± 0.22.

Take GYDPNALYIICRQPHNNRFMICCDRCEEWFHGDCVGISEARGRLLERNGEDYICPNCTI [C9I]: the abundance fitness is -0.823 ± 0.33.

In the case of GYDPNALYWICRQPHNNRFMICCDRCEEWFHGDCVGISEARGRLLERNGEDYICPNCTI [C9W], the abundance fitness is -0.543 ± 0.075.

Take GYDPNALYGICRQPHNNRFMICCDRCEEWFHGDCVGISEARGRLLERNGEDYICPNCTI [C9G]: the abundance fitness was -0.535 ± 0.083.

On to GYDPNALYRICRQPHNNRFMICCDRCEEWFHGDCVGISEARGRLLERNGEDYICPNCTI [C9R], for which the abundance fitness is -0.534 ± 0.042.

Turning to GYDPNALYLICRQPHNNRFMICCDRCEEWFHGDCVGISEARGRLLERNGEDYICPNCTI [C9L], the abundance fitness is -0.813 ± 0.083.

As to GYDPNALYVICRQPHNNRFMICCDRCEEWFHGDCVGISEARGRLLERNGEDYICPNCTI [C9V], the abundance fitness is -0.552 ± 0.069.

As for GYDPNALYFICRQPHNNRFMICCDRCEEWFHGDCVGISEARGRLLERNGEDYICPNCTI [C9F], the abundance fitness is -0.659 ± 0.15.

In the case of GYDPNALYEICRQPHNNRFMICCDRCEEWFHGDCVGISEARGRLLERNGEDYICPNCTI [C9E], the abundance fitness was -0.664 ± 0.12.

For GYDPNALYMICRQPHNNRFMICCDRCEEWFHGDCVGISEARGRLLERNGEDYICPNCTI [C9M], the abundance fitness is -0.606 ± 0.12.

GYDPNALYNICRQPHNNRFMICCDRCEEWFHGDCVGISEARGRLLERNGEDYICPNCTI [C9N]: the abundance fitness is -1.01 ± 0.31.

On to GYDPNALYKICRQPHNNRFMICCDRCEEWFHGDCVGISEARGRLLERNGEDYICPNCTI [C9K], for which the abundance fitness was -1 ± 0.28.

Regarding GYDPNALYQICRQPHNNRFMICCDRCEEWFHGDCVGISEARGRLLERNGEDYICPNCTI [C9Q], the abundance fitness was -0.495 ± 0.089.

For the origin of these results see the Human Domainome abundance scans (Beltran et al. 2025).
